Data: paper PMC3472098

Target: T1, Rrp44exo- (exoribonuclease-dead) (budding yeast, UniProt Q08162 1-1001, D551N)
T1 sequence: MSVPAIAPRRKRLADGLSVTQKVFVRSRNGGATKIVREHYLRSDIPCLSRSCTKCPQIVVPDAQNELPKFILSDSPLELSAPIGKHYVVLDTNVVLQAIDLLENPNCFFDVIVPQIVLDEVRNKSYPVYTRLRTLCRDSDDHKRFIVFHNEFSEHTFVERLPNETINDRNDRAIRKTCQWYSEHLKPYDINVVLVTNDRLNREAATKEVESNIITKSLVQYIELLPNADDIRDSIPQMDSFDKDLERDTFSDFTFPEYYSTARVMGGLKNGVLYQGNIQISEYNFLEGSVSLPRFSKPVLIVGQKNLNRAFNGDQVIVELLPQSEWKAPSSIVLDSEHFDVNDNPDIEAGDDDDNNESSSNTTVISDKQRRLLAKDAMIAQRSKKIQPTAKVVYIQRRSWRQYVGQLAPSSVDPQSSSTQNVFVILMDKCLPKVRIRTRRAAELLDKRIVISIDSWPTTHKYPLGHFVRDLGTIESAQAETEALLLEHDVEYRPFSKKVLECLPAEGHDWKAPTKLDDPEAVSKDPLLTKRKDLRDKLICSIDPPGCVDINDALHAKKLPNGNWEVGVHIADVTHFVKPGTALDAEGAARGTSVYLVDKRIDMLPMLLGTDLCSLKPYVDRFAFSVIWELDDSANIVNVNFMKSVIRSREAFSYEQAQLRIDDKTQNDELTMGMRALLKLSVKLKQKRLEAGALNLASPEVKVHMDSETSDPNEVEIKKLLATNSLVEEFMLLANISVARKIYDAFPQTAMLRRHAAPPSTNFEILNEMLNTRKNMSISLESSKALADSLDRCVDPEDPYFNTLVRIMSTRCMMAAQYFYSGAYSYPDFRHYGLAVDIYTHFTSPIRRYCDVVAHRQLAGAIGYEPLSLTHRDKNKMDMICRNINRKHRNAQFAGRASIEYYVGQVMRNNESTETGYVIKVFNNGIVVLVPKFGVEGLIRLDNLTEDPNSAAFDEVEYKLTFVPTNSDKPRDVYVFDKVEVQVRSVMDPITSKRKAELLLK
Experiment: fluorescence polarization

AAAAAAAAAAAAAAAAAAAAAAAAAAAAAAAAAAAAAAAAAAAAAAAAA (ssRNA) [polyA RNA 49 nt]
binding result: binds
